Test results published in paper PMC9388122.

Tests used:
[1] = target: (H3-H4)2 tetramer (recombinant Xenopus laevis histones) (X. laevis) (UniProt P84233); test: single-molecule photobleaching steps (optical tweezers with fluorescence detection); H2A-Cy3 hexasomes ligated to 2.5-kb DNA handles
[2] = target: (H3-H4)2 tetramer (recombinant Xenopus laevis histones) (X. laevis) (UniProt P84233); test: single-molecule photobleaching steps (optical tweezers with fluorescence detection); H2A-Cy3 nucleosomes ligated to 2.5-kb DNA handles, at low tension

stoichiometry N [1]: 1
stoichiometry N [2]: 2
Substance: H2A-Cy3-H2B heterodimer (H2A labelled with one Cy3 at the C-terminal tail by sortase) (from UniProt P06897 1-130; P02281 1-126) (complex)
